These results are taken from paper PMC11825483.

A short description of this data set: hepatic Ceacam1 mRNA and protein levels. The note with it: glycan changed form; control: Slc35c1 flox/flox mice.

B1: CEACAM1 (Ceacam1): Slc35c1 cKO (protein)
parent chain: MELASAHLHKGQVPWGGLLLTASLLASWSPATTAEVTIEAVPPQVAEDNNVLLLVHNLPLALGAFAWYKGNTTAIDKEIARFVPNSNMNFTGQAYSGREIIYSNGSLLFQMITMKDMGVYTLDMTDENYRRTQATVRFHVHQPVTQPFLQVTNTTVKELDSVTLTCLSNDIGANIQWLFNSQSLQLTERMTLSQNNSILRIDPIKREDAGEYQCEISNPVSVRRSNSIKLDIIFDPTQGGLSDGAIAGIVIGVVAGVALIAGLAYFLYSRKSGGGSDQRDLTEHKPSTSNHNLAPSDNSPNKVDDVAYTVLNFNSQQPNRPTSAPSSPRATETVYSEVKKK
In the case of B1, the expression_or_secretion result was “no change”.
